# Results reported in the DeepSol protein solubility set.
# Test: soluble on expression in E. coli; label from the status in PepcDB or PDB records
row,Sequence,soluble on expression in E. coli
1,MGSDKIHHHHHHMPDTRITEDFLGFGLGLRTDHFEYILQHQPDIDWFEVLSENYLVAGGKPRYYLEAIAEQYPVVMHGVSMSIGSSDPLDMDYLKALKKLSNDIQPKWISDHICWTSIHGVNSHDLLPLPYTEETVNHVAQRVRQVQDVLGRRILLENVSSYLSYQDSTMDEWDFLSQVAEAADCLVLLDINNIYVSARNHHFNPLDYLKKIDPRRVQQFHLAGHSDFGDYVIDTHDHDVPPSVWTLYQAALERFGAVSTMIERDANIPEFPALYNELLEAKHIAQLTLPDDPALARSQFGSRSLDDLSKFINTNNASSQKVRA,not soluble
2,MGSDKIHHHHHHMPEHLDFTLFQPKGRLASIVQGVWSTSVAIHSSNNIKRWLHSDACSGFLFNLSEPIQLNDLSISTGGVLLPVSKQAQTITLPPGAVVVGVRFHPAMSFAILGNIYQQATQIKKSETNILSLQTLGNQLEQAKGHYARIVVFYRWLNTMLLTIDNIPAPLMSALKALEDKKSPGELSNHVLLSQRQIERHFQKWLNMTPKYYQRISRVKNALKVLKLHPETALADLALSIGFTDQAHMTREFKYIARITPKHYAQKVIDDKSNALSIIKPKVG,not soluble
3,MGSDKIHHHHHHMPENYTPAAAATGTWTEEEIRHQPRAWIRSLTNIDALRSALNNFLEPLLRKENLRIILTGAGTSAFIGDIIAPWLASHTGKNFSAVPTTDLVTNPMDYLNPAHPLLLISFGRSGNSPESVAAVELANQFVPECYHLPITCNEAGALYQNAINSDNAFALLMPAETHDRGFAMTSSITTMMASCLAVFAPETINSQTFRDVADRCQAILTSLGDFSEGVFGYAPWKRIVYLGSGGLQGAARESALKVLELTAGKLAAFYDSPTGFRHGPKSLVDDETLVVVFVSSHPYTRQYDLDLLAELRRDNQAMRVIAIAAESSDIVAAGPHIILPPSRHFIDVEQAFCFLMYAQTFALMQSLHMGNTPDTPSASGTVNRVVQGVIIHPWQA,not soluble
4,MGSDKIHHHHHHMPESAEAQVKEALLALLKDRDIQHITMKEIAEKAKVSRGSLYLYYEDKFSIIEDVIEDMKEGLGKALFDAFSHMDTLHLNKKRQTVHPTLSFVHEHRSFFSVMMNRGHFHRFFKDVFQQDVLLAPIHVNLTPIERDIYGHYRALYTYAIILYWLNEDAAASPEAISQKVWELVSQKRFYWLFGKAVPGEREKEKQIDRRVVRTREALQKAFLDVLAEKQDYAGITISDITRKSNIRRATFYDHYANKEELLQTMIQRSCAEIIDHLTIASSPNEFSLKEAEKALAILLSALSNMPIVHFLNREWGVPHVIPDMFKALESFYLHQQTDIHAEKKLYAHYVSAMIIGLLLYRLDEGKAHPPEVLAREFLQFLDVKKYKVVLL,not soluble
5,MGSDKIHHHHHHMPGPYNEMDVAISYIHNHLYEPLSLSHIASYVGYSSYHFSRLFKEKTGLSPLYYVSSLRLQKAKELLLNTNLTVRDIGLEIGQQSLGTFTTRFTKCVGMSPSHFRESMNQVNHSLHSLQMLSDWRTSLQSIHPFSTVTGTIDSEAPLEGFILIGLFSKPIPEGLPLYGNLLSSTGAFSFTGVTPGIYYLMATSISWSMQAKDILLPYTTLRGRIKEPIIVTSSPSILEYSLTLHTPRLDDPPILISLPLLMKNFLKARIAT,not soluble
6,MGSDKIHHHHHHMPLLEIKNLTKIFTIGSIFSRTRIVAVDNVNFDINEAEIFTLAGESGCGKTTTAKIILGFEEPTSGEIIYKGRKIDRVHQNEKERRELLKEIQAVFQNPFSTFNPLRKVDRYFYETLFNLGIADTKKKAEEIIKEKLSAVGISFEEFSEKYPSEFSGGQLQRISIARALLTNPSLLVADEPVSMVDASLRMSIVNLFKDLKEQYGVSVLYITHDLTTAYYVSDRIAVMFRGNIVELGPAEKVLMEPKHPYTQLLRESVPEPDPKKKWDIRIKLSETEQAEYLRQGCKFAGRCPKAMDICRKEPPPYFEVDGVQVKCWLYR,not soluble
7,MGSDKIHHHHHHMPLYQPLTPRLFMRQWRASDLPCFARMNADRRVMRFFPASLTRRQSDAMAERCSMLIDSQGWGFWAVEERSSGLFAGMVGLHRPSGDLPFAPCVEVGWRLDPDHWGKGYATEAAAAALDIAFNTLGLHEVVAFTAVLNTPSQAVMRRLGMRHAMDFEHPAVPADSPLRAHCLYRTDKEEHQRRHGL,not soluble
8,MGSDKIHHHHHHMPNRDSEKLITDGYTTTLLGDELMVCENMKHIRVTSVPSYTEVGMIILCLRGTAKICIFDNIHILAKNELAVILPGQLVSITELSPDFLCNIVVLSRALFDDTLSGFSRFSPLFFVYMRSHYWYELTGEEIERFKLFYGSLSQRAKDPTHFFRRESVLLLLRIFYLDIYNEYYSKSHLMKGGSDMGKSKLAHDFFCLIMQHYREHKDVAFYADKLCITSKYLSMVIKEASGKTAKDWIVEYAILEIKAMLKNSTMNIQEISIKTNFANQSSLGRFFRKHTGMTLTEYRMHR,not soluble
9,MGSDKIHHHHHHMPNVNLDALIPREDFEVIENNSRASSFNQNVSVKDLEKGEFFYAGLRKPDFQRETSDWTDEQLCEFIQSFIDGDLIPAVILWNSGPYNFVIDGAHRLGALISWINDDYGDGHISQKFFNNEIDDEQKDIANKTRERIKNTVKPYSDYKKVILDSSDCDRGILEKALSLGRTSIQLQWVTGGAEKAELSFFKINQKASKINDTEIELLKSRRKAFAIASRAIIRAGTGHQYWSKFDNDVMQNIETMAKEIHSLIFLPKVSGAVRTLDLPLVKKHNSPQTNSFIFDLVKKCNNVPVNTIKIDDDDNGKLTVEYLKNVRKFLRRINSSHPSSLGLHPLVYFYNKRGNHIYSAILAWVDTIVTIEKTKVSLSSFLFIRSDLEKFLIKYKHFISGVNAKYGSGVKSYKHILKINSIIINQLQKRESEKYIVDSILNEYGFLSESDDVNVTSARFSTDIKSQIYIQETLPKTSTCSHCHGFIHQNSISFDHIVRKQDGGKGNVGNGALMHPYCNTSEKN,not soluble
10,MGSDKIHHHHHHMPRNLPPLYALRAFEAAARHTSFTRAAEELSITQSAVSRHIRTLEEHFACRLFQRNGRNLQLTESARTLLPGVRDGFLALERACSTLQTDEGVLRMKAPSTLTMRWLLARLSRFRHLQVGNEVQLTSAWMDIDAVDFTREPFDCAILLSQGHFPSDWEATLLFAELLIPVGAPTLSQDPPWDVERLAKAELLHPTPDRRDWRTWLNRMGLADQVSLKGGQVFDTLELGMIAAARGYGVSMGDLLMVAEDLAQSRLSLPWRTAVFSGENYYLVWPRTRPGAERLRRLSDFLQAEVKAMKLPLVEVLR,not soluble
11,MGSDKIHHHHHHMPSDASRRLYERLGIPLLPMDSPFGPEYPIGNKFAALALGPAVGHTLFLDSDMICVDAFEADMLCRFDAALKPADMALVAKQNDYWERIYAHAGSALPGDRVVTTCSGEAMPAYYNAGFILVRDARRFAEVWYRLAERVHADPLITNKMPWLDQLTLPVALHALNYKTRALSERFNYPLHIKPLSAASLPPFFCHYHSLDTLVSERSLWAELDELAKRFPELREVLALDANWKKAILAPAPRLAFSEGDSTGTVEAGQDLVITGIPRSGTSHLCRLLSQQPDTVVLNEPPQVFEALKLSPLPWGLPRYYAELRRDILAGRPVPNKHVNGRLVDDTARGNDQSSDYFAEVRGASFHLGTKNTLAYIARLPLIRKVMPTALLIATIRHPYDTLNSWANTFEHLRQAAVERQPFGCPDDLALTGWQRKALLAIADTDHLAVRRALWWRYLALQLEDAGDYVQLLRYEDFVEAPQTTLAALRNNRPLPFDEPAVWSKGLAPDEQELVANIVCDVAERFHYVL,not soluble
12,MGSDKIHHHHHHMPTMIPAASRAMAVFEVFAREKRELSNSDMARLLSLPESSTSDLLHTLHSLGYLMRTTRTRRFYPTGRLSEIARQIAENDPLTTVAQEAIEQVSARTNESVFFGVLDGTAVKVMAVQASRLPLRYIIEVGYRAALHASALGKGLLGLLPPEEARETLAKSSLRAVTAHTVVDIDTLMAQVAKGRKRGWYEAHEEGSEGVHGLAVTGWLGGQAAGISLAGPAERMKKNHDAYLAALIEVRDALMSEE,not soluble
13,MGSDKIHHHHHHMPTVERHIRGKWACDSCETLIQAPVPPQVIDKGIPTAGLLAQVLVAKYADHLPLYRQERMFGRAGLEIPRSTLAEWVGACGVQLQPLVDALRNTLLEHSVLHADETPVSMLAPGKKKTHKAYVWAYCTTPFADLKAAIYDFAPSRAGEHARTFLGDWRGKLVCDDYAGYKAGFGNGITEIGCMAHARRKFYDLHEANKSELAAKALEYIGGLYEIERETKDLPPDMRREIRQTKAKPLADALHQWMLAHRQKVPDGSGTAKALDYSLKRWEALTRYLDDGAVPIDNNWVENQIRPWALGRSNWLFAGSLRSGQRAAAVMTLIQSAKLNRHDPYAYLKDVLTRLPTQKNNAIDELLPHNWKPAIPNKV,not soluble
